Two proteins from paper PMC12315504 (The FASEB Journal, 2021) can be followed below.

Data set [1] concerns the molecule itself. The experiment in a line: non-reducing SDS-PAGE.
Data set [2] concerns the molecule itself. In words: non-reducing SDS-PAGE. The source holds these as a separate data set.

Where two headings read alike, the source gives them in different places.

B1: Fgf15 (wild-type, mouse), in Hek293T conditioned medium (ligand, UniProt O35622 26-218, looked up)
chain: RPLAQQSQSVSDEDPLFLYGWGKITRLQYLYSAGPYVSNCFLRIRSDGSVDCEEDQNERNLLEFRAVALKTIAIKDVSSVRYLCMSADGKIYGLIRYSEEDCTFREEMDCLGYNQYRSMKHHLHIIFIQAKPREQLQDQKPSNFIPVFHRSFFETGDQLRSKMFSLPLESDSMDPFRMVEDVDHLVKSPSFQK
A word on the stoichiometry N: it is a count of units in the complex or per binding partner. In the case of B1, in data set [1], the “stoichiometry N” value came to 2.

B2: Fgf15 (wild-type, mouse), in serum of mice after hydrodynamic delivery of the plasmid (ligand, UniProt O35622 26-218, looked up)
chain: B1 chain
For B2, the “stoichiometry N” value in data set [2] is 2.
